Results: the Human Domainome abundance scans (Beltran et al. 2025)
± gives the uncertainty stated by the source.

B1: LIM and senescent cell antigen-like-containing domain protein 2, residues 13 to 71; numbered along this chain, Q7Z4I7 (parent)
chain: AVCQRCQARFSPAERIVNSNGELYHEHCFVCAQCFRPFPEGLFYEFEGRKYCEHDFQML

Variants of: B1
Test: abundance fitness (aPCA) (normalised: wild type 0, dead -1); higher = more abundant; growth selection in yeast, the domain comes from the species named
Details: Homo sapiens
Work on AVCQRCQARFSPAERIVLSNGELYHEHCFVCAQCFRPFPEGLFYEFEGRKYCEHDFQML [N18L] yielded an abundance fitness of -0.615 ± 0.071.
For AVCQRCQARFSPAERIVASNGELYHEHCFVCAQCFRPFPEGLFYEFEGRKYCEHDFQML [N18A], the abundance fitness was -0.227 ± 0.092.
Variant AVCQRCQARFSPAERIVESNGELYHEHCFVCAQCFRPFPEGLFYEFEGRKYCEHDFQML [N18E] has an abundance fitness of -0.116 ± 0.094.
AVCQRCQARFSPAERIVISNGELYHEHCFVCAQCFRPFPEGLFYEFEGRKYCEHDFQML [N18I] showed an abundance fitness of -0.244 ± 0.17.
For AVCQRCQARFSPAERIVDSNGELYHEHCFVCAQCFRPFPEGLFYEFEGRKYCEHDFQML [N18D], the abundance fitness was -0.068 ± 0.28.
For AVCQRCQARFSPAERIVHSNGELYHEHCFVCAQCFRPFPEGLFYEFEGRKYCEHDFQML [N18H], the abundance fitness was -0.281 ± 0.2.
Work on AVCQRCQARFSPAERIVFSNGELYHEHCFVCAQCFRPFPEGLFYEFEGRKYCEHDFQML [N18F] yielded an abundance fitness of 0.11 ± 0.18.
With AVCQRCQARFSPAERIVCSNGELYHEHCFVCAQCFRPFPEGLFYEFEGRKYCEHDFQML [N18C] the abundance fitness was -0.089 ± 0.16.
AVCQRCQARFSPAERIVGSNGELYHEHCFVCAQCFRPFPEGLFYEFEGRKYCEHDFQML [N18G] showed an abundance fitness of -0.15 ± 0.11.
With AVCQRCQARFSPAERIVKSNGELYHEHCFVCAQCFRPFPEGLFYEFEGRKYCEHDFQML [N18K] the abundance fitness was -0.411 ± 0.14.
With AVCQRCQARFSPAEYIVNSNGELYHEHCFVCAQCFRPFPEGLFYEFEGRKYCEHDFQML [R15Y] the abundance fitness was -0.153 ± 0.083.
AVCQRCQARFSPAEWIVNSNGELYHEHCFVCAQCFRPFPEGLFYEFEGRKYCEHDFQML [R15W] showed an abundance fitness of -0.595 ± 0.085.
With AVCQRCQARFSPAERSVNSNGELYHEHCFVCAQCFRPFPEGLFYEFEGRKYCEHDFQML [I16S] the abundance fitness was -0.04 ± 0.043.
Work on AVCQRCQARFSPAERPVNSNGELYHEHCFVCAQCFRPFPEGLFYEFEGRKYCEHDFQML [I16P] yielded an abundance fitness of -0.104 ± 0.056.
AVCQRCQARFSPAERVVNSNGELYHEHCFVCAQCFRPFPEGLFYEFEGRKYCEHDFQML [I16V] gave an abundance fitness of -0.194 ± 0.059.
Work on AVCQRCQARFSPAEREVNSNGELYHEHCFVCAQCFRPFPEGLFYEFEGRKYCEHDFQML [I16E] yielded an abundance fitness of -0.341 ± 0.13.
In the case of AVCQRCQARFSPAERTVNSNGELYHEHCFVCAQCFRPFPEGLFYEFEGRKYCEHDFQML [I16T], the abundance fitness is reported as 0.07 ± 0.051.
In the case of AVCQRCQARFSPAERRVNSNGELYHEHCFVCAQCFRPFPEGLFYEFEGRKYCEHDFQML [I16R], the abundance fitness is reported as -0.114 ± 0.048.
Work on AVCQRCQARFSPAERDVNSNGELYHEHCFVCAQCFRPFPEGLFYEFEGRKYCEHDFQML [I16D] yielded an abundance fitness of -0.267 ± 0.091.
AVCQRCQARFSPAERQVNSNGELYHEHCFVCAQCFRPFPEGLFYEFEGRKYCEHDFQML [I16Q] showed an abundance fitness of -0.069 ± 0.061.
Work on AVCQRCQARFSPAERCVNSNGELYHEHCFVCAQCFRPFPEGLFYEFEGRKYCEHDFQML [I16C] yielded an abundance fitness of -0.069 ± 0.078.
For AVCQRCQARFSPAERYVNSNGELYHEHCFVCAQCFRPFPEGLFYEFEGRKYCEHDFQML [I16Y], the abundance fitness was -0.2 ± 0.082.
With AVCQRCQARFSPAERWVNSNGELYHEHCFVCAQCFRPFPEGLFYEFEGRKYCEHDFQML [I16W] the abundance fitness was -0.146 ± 0.063.
With AVCQRCQARFSPAERGVNSNGELYHEHCFVCAQCFRPFPEGLFYEFEGRKYCEHDFQML [I16G] the abundance fitness was -0.178 ± 0.085.
Work on AVCQRCQARFSPAERAVNSNGELYHEHCFVCAQCFRPFPEGLFYEFEGRKYCEHDFQML [I16A] yielded an abundance fitness of -0.1 ± 0.058.
AVCQRCQARFSPAERKVNSNGELYHEHCFVCAQCFRPFPEGLFYEFEGRKYCEHDFQML [I16K] showed an abundance fitness of 0.098 ± 0.057.
AVCQRCQARFSPAERMVNSNGELYHEHCFVCAQCFRPFPEGLFYEFEGRKYCEHDFQML [I16M] showed an abundance fitness of 0.026 ± 0.055.
Work on AVCQRCQARFSPAERLVNSNGELYHEHCFVCAQCFRPFPEGLFYEFEGRKYCEHDFQML [I16L] yielded an abundance fitness of -0.023 ± 0.042.
For AVCQRCQARFSPAERNVNSNGELYHEHCFVCAQCFRPFPEGLFYEFEGRKYCEHDFQML [I16N], the abundance fitness was -0.174 ± 0.065.
With AVCQRCQARFSPAERINNSNGELYHEHCFVCAQCFRPFPEGLFYEFEGRKYCEHDFQML [V17N] the abundance fitness was -0.147 ± 0.14.
AVCQRCQARFSPAERICNSNGELYHEHCFVCAQCFRPFPEGLFYEFEGRKYCEHDFQML [V17C] gave an abundance fitness of -0.298 ± 0.13.
In the case of AVCQRCQARFSPAERIFNSNGELYHEHCFVCAQCFRPFPEGLFYEFEGRKYCEHDFQML [V17F], the abundance fitness is reported as -0.019 ± 0.095.
Variant AVCQRCQARFSPAERIRNSNGELYHEHCFVCAQCFRPFPEGLFYEFEGRKYCEHDFQML [V17R] has an abundance fitness of -0.117 ± 0.049.
AVCQRCQARFSPAERIINSNGELYHEHCFVCAQCFRPFPEGLFYEFEGRKYCEHDFQML [V17I] gave an abundance fitness of 0.009 ± 0.12.
AVCQRCQARFSPAERIPNSNGELYHEHCFVCAQCFRPFPEGLFYEFEGRKYCEHDFQML [V17P] showed an abundance fitness of -0.727 ± 0.11.
AVCQRCQARFSPAERIWNSNGELYHEHCFVCAQCFRPFPEGLFYEFEGRKYCEHDFQML [V17W] showed an abundance fitness of -0.492 ± 0.077.
Variant AVCQRCQARFSPAERIMNSNGELYHEHCFVCAQCFRPFPEGLFYEFEGRKYCEHDFQML [V17M] has an abundance fitness of -0.248 ± 0.085.
Work on AVCQRCQARFSPAERITNSNGELYHEHCFVCAQCFRPFPEGLFYEFEGRKYCEHDFQML [V17T] yielded an abundance fitness of -0.048 ± 0.068.
With AVCQRCQARFSPAERIKNSNGELYHEHCFVCAQCFRPFPEGLFYEFEGRKYCEHDFQML [V17K] the abundance fitness was 0.03 ± 0.1.
In the case of AVCQRCQARFSPAERIGNSNGELYHEHCFVCAQCFRPFPEGLFYEFEGRKYCEHDFQML [V17G], the abundance fitness is reported as -0.372 ± 0.079.
AVCQRCQARFSPAERIHNSNGELYHEHCFVCAQCFRPFPEGLFYEFEGRKYCEHDFQML [V17H] showed an abundance fitness of 0.01 ± 0.12.
Variant AVCQRCQARFSPAERIYNSNGELYHEHCFVCAQCFRPFPEGLFYEFEGRKYCEHDFQML [V17Y] has an abundance fitness of -0.262 ± 0.14.
Variant AVCQRCQARFSPAERILNSNGELYHEHCFVCAQCFRPFPEGLFYEFEGRKYCEHDFQML [V17L] has an abundance fitness of -0.003 ± 0.053.
Work on AVCQRCQARFSPAERIENSNGELYHEHCFVCAQCFRPFPEGLFYEFEGRKYCEHDFQML [V17E] yielded an abundance fitness of -0.251 ± 0.087.
In the case of AVCQRCQARFSPAERIDNSNGELYHEHCFVCAQCFRPFPEGLFYEFEGRKYCEHDFQML [V17D], the abundance fitness is reported as -0.298 ± 0.24.
